{
  "source": "patent US20250154240A1",
  "about": "“ANTI-HUMAN CXCL1 ANTIBODY” (CHIOME BIOSCIENCE INC., priority 2022, published 2025)",
  "key": {"[1]": {"test_system": "OCUM-12 gastric cancer cell line", "experiment": "Antitumor activity, treatment model with OCUM-12 orthotopic transplantation", "assay_type": "in vivo, mouse", "conditions": "compared to PBS", "experimental": "OCUM-12 cells were cultured in D-MED medium (FUJIFILM Wako Pure Chemical Corporation, Japan) supplemented with 10% fetal bovine serum (hereinafter abbreviated as FBS; Sigma-Aldrich Corporation) and 1/100 volumes of a penicillin-streptomycin mixture (Nacalai Tesque, Inc., Japan). The cells to be transplanted were detached with 0.25% trypsin/0.02% EDTA (Thermo Fisher Scientific) and washed with PBS, and 4×10^5 cells per mouse were transplanted into the gastric wall of each mouse. On the day following the transplantation, the mice were randomized into groups (8 mice per group) and intraperitoneally administered with test antibodies at a dose of 400 μg/head. […] After 3 weeks had passed from the transplantation, the mice were sacrificed, and the short- and long-axis diameters of tumors formed in their gastric walls were each measured with a caliper. The tumor size was calculated according to the following: 1/2 short-axis diameter (mm)×1/2 long-axis diameter (mm)×3.14. […]\nThe dose-response relationship between antibody dose and in vivo antitumor activity or CXCR2 migration inhibitory activity was evaluated in a xenograft treatment model with OCUM-12 orthotopic transplantation. […] After 4 weeks had passed from the transplantation, the mice were sacrificed and evaluated."}, "[2]": {"target": "T1, HuCXCL2 (Homo sapiens, UniProt P19875)", "T1 construct": "purchased PROTEINTECH", "T1 sequence (P19875 35-107)": "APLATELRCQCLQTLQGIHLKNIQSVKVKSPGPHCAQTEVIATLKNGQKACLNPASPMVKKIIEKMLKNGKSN", "experiment": "FACS, inhibition of binding of APC-labeled HuCXCL2 to HEK293 cells forced to express HuCXCR2", "assay_type": "cell-based", "conditions": "APC-labeled ligand 10 μg/mL; HEK293 cells expressing HuCXCR2", "experimental": "(§1) Chemokines are stabilized by directly binding to GAG on the cell surface and thereby allow efficient signal transduction to their receptors. […] Then, to evaluate whether Hu5A-5E11 inhibits the binding of CXCLs to cells, the binding of fluorescently labeled CXCLs to cells was measured as fluorescence intensity by flow cytometry in FACS. For this purpose, HEK293 cells forced to express HuCXCR2 were used. For use as HuCXCL1, 2, 3 and 5 and MsCXCL1, the proteins in above were labeled with APC.\n(§2) The cultured cells were detached and washed with PBS, and then suspended at 5.0× 10^5 cells/mL in PBS containing 1% BSA (hereinafter referred to as the FACS buffer). Each of the APC-labeled ligands and Hu5A-5E11 were mixed at final concentrations of 10 μg/mL and 16.7 μg/mL, respectively, and reacted at room temperature for 30 minutes, and then added to the cell suspension and reacted on ice for 30 minutes. After washing with the FACS buffer, the cells were suspended again in PBS containing 1% 7-AAD, 0.5% BSA and 2 mM EDTA, followed by the above flow cytometry to measure fluorescence intensity."}, "[3]": {"target": "T2, HuCXCL5 (Homo sapiens, UniProt P42830)", "T2 sequence (P42830 37-114)": "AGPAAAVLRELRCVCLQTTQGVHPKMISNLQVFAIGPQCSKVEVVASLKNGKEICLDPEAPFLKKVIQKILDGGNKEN", "experiment": "ELISA, inhibition of binding of HuCXCL5 to GAG (heparin, heparan sulfate)", "assay_type": "biochemical", "design": "purchased PROTEINTECH", "conditions": "antibody 0 to 10 μg/mL; biotin-labeled heparin or heparan sulfate 10 μg/mL", "experimental": "Thus, the effect of Hu5A-5E11 on the binding of CXCLs to GAG was evaluated by ELISA assay using plates on which the antigen (HuCXCL1 protein) used for immunization or HuCXCL2, 3 and 5 and MsCXCL1 and 2 proteins had been directly immobilized. CXCLs other than HuCXCL1 were purchased from PROTEINTECH and used. Biotin-labeled heparan sulfate and heparin were purchased from PG Research and used.\nTo 96-well plates, phosphate-buffered saline (PBS) containing 3 μg/mL of HuCXCL1, 2, 3 or 5 or MsCXCL1 or 10 μg/mL of MsCXCL2 was added in a volume of 50 μL per well, and the plates were allowed to stand overnight at 4° C. After removal of the antigen solutions, PBS containing 0.05% Tween-20 (hereinafter referred to as the blocking solution) was added to each well for blocking reaction, and the plates were allowed to stand at room temperature for 30 minutes. […] TMB (Dako) was added as a chromogenic substrate solution to cause color development, and 1 N sulfuric acid was added to stop the reaction, followed by measurement of absorbance at 450 nm. The binding rate of CXCLs to GAG was calculated as a ratio relative to the absorbance measured in the absence of the antibody, which was set to 100%."}, "[4]": {"target": "T2, HuCXCL5", "experiment": "FACS, inhibition of binding of APC-labeled HuCXCL5 to HEK293 cells forced to express HuCXCR2", "assay_type": "cell-based", "design": "purchased PROTEINTECH; host or cells: CXCR2: transfected HEK293 cells", "conditions": "APC-labeled ligand 10 μg/mL; HEK293 cells expressing HuCXCR2", "experimental": "as §1, §2"}, "[5]": {"target": "T3, MsCXCL1 (Mus musculus, UniProt P12850)", "T3 sequence (P12850 25-96)": "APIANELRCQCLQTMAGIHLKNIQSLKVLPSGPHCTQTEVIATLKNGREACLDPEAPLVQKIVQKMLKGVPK", "experiment": "FACS, inhibition of binding of APC-labeled MsCXCL1 to HEK293 cells forced to express HuCXCR2", "assay_type": "cell-based", "design": "purchased PROTEINTECH; host or cells: CXCR2: transfected HEK293 cells", "conditions": "APC-labeled ligand 10 μg/mL; HEK293 cells expressing HuCXCR2", "experimental": "as §1, §2"}},
  "data": [
    {"molecule": "Hu5A-5E11: humanized antibody VH1/VL1; VH SEQ ID NO: 76, VL SEQ ID NO: 78 (antibody, V domains shown) VH: QVQLVQSGAEVKKPGSSVKVSCKASGYAFSDYWMNWVRQAPGQGLEWIGQIYPGSGDTNYNAKFKGKGTITADKSTSTAYMELSSLRSEDTAVYYCARERDYDVAMDYWGQGTTVTVSS VL: DIQMTQSPSSLSASVGDRVTITCKASQDINKYIAWFQQKPGKAPKLVIHYTSILQPGVPSRFSGSGSGTDYTFTISSLQPEDIATYYCLQYDNLPWTFGGGTKVEIK", "values": [
      {"measurement": "Dose significantly suppressing the tumor area", "setting": "[1]", "value": "≥ 60", "unit": "μg/head"},
      {"measurement": "Inhibitory activity against the binding of HuCXCL2 to cells (fluorescence intensity)", "setting": "[2]", "value": "reduce the fluorescence intensity of the cells in an antibody concentration-dependent manner"},
      {"measurement": "Inhibitory activity against the binding of HuCXCL5 to GAG", "setting": "[3]", "value": "inhibit the binding of HuCXCL1, 2, 3 and 5 and MsCXCL1 to GAG in an antibody concentration-dependent manner"},
      {"measurement": "Inhibitory activity against the binding of HuCXCL5 to cells (fluorescence intensity)", "setting": "[4]", "value": "reduce the fluorescence intensity of the cells in an antibody concentration-dependent manner"},
      {"measurement": "Inhibitory activity against the binding of MsCXCL1 to cells (fluorescence intensity)", "setting": "[5]", "value": "reduce the fluorescence intensity of the cells in an antibody concentration-dependent manner"}
    ]}
  ]
}
